Laboratory results as given in doi:10.1101/2022.09.01.504486.

Molecular target: PfCelTOS
Experiment: cross-linking

Work on PfCelTOS (natural protein) yielded a stoichiometry N of 2.
